One test concerns the target mature human thrombin (human, UniProt P00734 314-363; P00734 364-622). Description: estimate from the rate of S2238 hydrolysis by thrombin.
Test [1] addresses T1, prothrombin (human, UniProt P00734 44-622). Description: pull-down with IgA binding lectin-agarose, supernatant on SDS-PAGE.
In test [2] the target is T1, prothrombin. Description: ForteBio Octet, immobilized IgG.

The values that follow come from WO2019030706A1 (dated 2019).

B1: wild-type anti-exosite 1 IgA antibody (antibody, V domains shown)
VH: QVQLIQSGSAVKKPGASVRVSCKVSGYTLTEAAIHWVRQAPGKGLEWMGGLDPQDGETVYAQQFKGRVTMTEDRSTDTAYMEVNNLRSEDTATYYCTTGDFSEFEPFSMDYFHFWGQGTVVTVAS
VL: EIVLTQSPATLSLSPGERATLSCRASQNVSSFLAWYQHKPGQAPRLLIYDASSRATDIPIRFSGSGSGTDFTLTISGLEPEDFAVYYCQQRRSWPPLTFGGGTKVEIKR
notes: also called anti-thrombin IgA; anti-IIa IgA
Consider B1, for which, in the test with mature human thrombin, the Kd (commonly a measure of binding affinity in units of concentration) was about 12 nM. In addition, the binding result in the test with prothrombin [1] is listed as “no binding”.

B2: synthetic anti-exosite 1 IgG antibody (antibody, V domains shown)
VH: B1 VH
VL: B1 VL
notes: also called synthetic IgG; anti-exosite IgG antibody
For B2, the binding result with prothrombin [2] is listed as “no binding (tested: 500nM)”.
